Publication PMC7979752

Legend:
[1] = target: SmhB (S. marcescens MSU-97); assay: crystal structure; SmhB pore form, crystallised in 0.2 M calcium chloride, 40% MPD, 16 °C; space group C2, 6.98 Å
[2] = target: SmhC (S. marcescens MSU-97)

## SmhB (natural protein)
[1]
  stoichiometry N: 10
[2]
  percentage lysis of horse erythrocytes with equimolar SmhB and SmhC, 2 h: 5%
